The values that follow come from publication doi:10.1101/2025.10.31.685832.

This experiment deals with MelA1 (Candidatus Melainabacteria bacterium isolate SJ512). The experiment can be described thus: SEC; size-exclusion chromatography of MelA1; column and buffer not told. A general note: SEC sorts molecules by how far they enter the pores of the column.

Regarding MelA1 (natural protein), the stoichiometry N – broadly, the number of molecules, sites or subunits per partner or assembly – was determined as 2.
